Results from paper PMC4700671.
“And” between values parts separate entries of the source, which are not always exact repeats. Identical values can stand only once.

What was measured:
[1] = biological target: myristoylated MMTV MA (matrix protein of mouse mammary tumor virus), wild type, with C-terminal His-tag (mouse mammary tumor virus) (UniProt P10258); test: AUC; sedimentation velocity, protein at 5.0 mg/mL in 50 mM Na2HPO4, 300 mM NaCl, 2.5 mM TCEP, pH 6.0; 50,000 rpm, 4 °C; absorbance at 250 nm; c(s) continuous size distribution; monomer to dimer (and tetramer)
[2] = biological target: myristoylated MMTV MA (matrix protein of mouse mammary tumor virus), wild type, with C-terminal His-tag (mouse mammary tumor virus) (UniProt P10258); test: AUC; sedimentation velocity, protein at 0.5 mg/mL in 50 mM Na2HPO4, 300 mM NaCl, 2.5 mM TCEP, pH 6.0; 50,000 rpm, 4 °C; absorbance at 280 nm; c(s) continuous size distribution; monomer to dimer
[3] = biological target: myristoylated MMTV MA triple mutant L11N/F12N/V15N, with C-terminal His-tag (mouse mammary tumor virus) (UniProt P10258); test: AUC; sedimentation velocity, protein at 5.0 mg/mL in 50 mM Na2HPO4, 300 mM NaCl, 2.5 mM TCEP, pH 6.0; 50,000 rpm, 4 °C; absorbance at 250 nm; c(s) continuous size distribution; monomer to dimer (and tetramer)
[4] = biological target: myristoylated MMTV MA triple mutant L11N/F12N/V15N, with C-terminal His-tag (mouse mammary tumor virus) (UniProt P10258); test: AUC; sedimentation velocity, protein at 0.5 mg/mL in 50 mM Na2HPO4, 300 mM NaCl, 2.5 mM TCEP, pH 6.0; 50,000 rpm, 4 °C; absorbance at 280 nm; c(s) continuous size distribution; monomer to dimer
[5] = biological target: nonmyristoylated MMTV MA (matrix protein of mouse mammary tumor virus), wild type, with C-terminal His-tag (mouse mammary tumor virus) (UniProt P10258); test: AUC; sedimentation velocity, protein at 5.0 mg/mL in 50 mM Na2HPO4, 300 mM NaCl, 2.5 mM TCEP, pH 6.0; 50,000 rpm, 4 °C; absorbance at 250 nm; c(s) continuous size distribution; monomer to dimer (and tetramer)

In the case of “myristoylated MMTV MA (matrix protein of mouse mammary tumor virus), wild type, with C-terminal His-tag (from UniProt P10258 2-92) (domain or fragment)”, the percent dimer [1] is reported as 98%, the percent tetramer [1] is reported as 2% and the stoichiometry N [1] is reported as 2 and 4. It also gave a stoichiometry N [2] of 2.
“myristoylated MMTV MA triple mutant L11N/F12N/V15N, with C-terminal His-tag (from UniProt P10258 2-92) (domain or fragment)” was tested, and the stoichiometry N [3] was 2, the percent dimer [4] was 48% and the stoichiometry N [4] was 2.
“nonmyristoylated MMTV MA (matrix protein of mouse mammary tumor virus), wild type, with C-terminal His-tag (from UniProt P10258 2-92) (domain or fragment)” showed a percent dimer [5] of 26% and a stoichiometry N [5] of 2.
